Data on 20 molecules can be found in patent US20210388087A1.

First the molecules themselves.
B1: H183/L072 VH M34K (antibody, name in Kabat numbering, V domains shown)
VH: QVQLVESGGGLVQPGRSLRLSCAASGFTFSNAWKHWVRQAPGKGLEWVAQIKDKGNAYAAYYAPSVKGRFTISRDDSKNSIYLQMNSLKTEDTAVYYCHYVHYASASTVLPAFGVDAWGQGTTVTVSS
VL: DIVMTQSPLSLPVTPGEPASISCQASQELVHMNRNTYLHWYQQKPGQAPRLLIYKVSNRFPGVPDRFSGSGSGTDFTLKISRVEAEDVGVYYCAQGTSVPFTFGQGTKLEIK
B2: H183/L072 VH H35K (antibody, name in Kabat numbering, V domains shown)
VH: QVQLVESGGGLVQPGRSLRLSCAASGFTFSNAWMKWVRQAPGKGLEWVAQIKDKGNAYAAYYAPSVKGRFTISRDDSKNSIYLQMNSLKTEDTAVYYCHYVHYASASTVLPAFGVDAWGQGTTVTVSS
VL: DIVMTQSPLSLPVTPGEPASISCQASQELVHMNRNTYLHWYQQKPGQAPRLLIYKVSNRFPGVPDRFSGSGSGTDFTLKISRVEAEDVGVYYCAQGTSVPFTFGQGTKLEIK
B3: H183/L072 VH A56F (antibody, name in Kabat numbering, V domains shown)
VH: QVQLVESGGGLVQPGRSLRLSCAASGFTFSNAWMHWVRQAPGKGLEWVAQIKDKGNAYFAYYAPSVKGRFTISRDDSKNSIYLQMNSLKTEDTAVYYCHYVHYASASTVLPAFGVDAWGQGTTVTVSS
VL: DIVMTQSPLSLPVTPGEPASISCQASQELVHMNRNTYLHWYQQKPGQAPRLLIYKVSNRFPGVPDRFSGSGSGTDFTLKISRVEAEDVGVYYCAQGTSVPFTFGQGTKLEIK
B4: H183/L072 VH N53F (antibody, name in Kabat numbering, V domains shown)
VH: QVQLVESGGGLVQPGRSLRLSCAASGFTFSNAWMHWVRQAPGKGLEWVAQIKDKGFAYAAYYAPSVKGRFTISRDDSKNSIYLQMNSLKTEDTAVYYCHYVHYASASTVLPAFGVDAWGQGTTVTVSS
VL: DIVMTQSPLSLPVTPGEPASISCQASQELVHMNRNTYLHWYQQKPGQAPRLLIYKVSNRFPGVPDRFSGSGSGTDFTLKISRVEAEDVGVYYCAQGTSVPFTFGQGTKLEIK
B5: H183/L072 VH I51F (antibody, name in Kabat numbering, V domains shown)
VH: QVQLVESGGGLVQPGRSLRLSCAASGFTFSNAWMHWVRQAPGKGLEWVAQFKDKGNAYAAYYAPSVKGRFTISRDDSKNSIYLQMNSLKTEDTAVYYCHYVHYASASTVLPAFGVDAWGQGTTVTVSS
VL: DIVMTQSPLSLPVTPGEPASISCQASQELVHMNRNTYLHWYQQKPGQAPRLLIYKVSNRFPGVPDRFSGSGSGTDFTLKISRVEAEDVGVYYCAQGTSVPFTFGQGTKLEIK
B6: H183/L072 VH Q50R (antibody, name in Kabat numbering, V domains shown)
VH: QVQLVESGGGLVQPGRSLRLSCAASGFTFSNAWMHWVRQAPGKGLEWVARIKDKGNAYAAYYAPSVKGRFTISRDDSKNSIYLQMNSLKTEDTAVYYCHYVHYASASTVLPAFGVDAWGQGTTVTVSS
VL: DIVMTQSPLSLPVTPGEPASISCQASQELVHMNRNTYLHWYQQKPGQAPRLLIYKVSNRFPGVPDRFSGSGSGTDFTLKISRVEAEDVGVYYCAQGTSVPFTFGQGTKLEIK
B7: H183/L072 VH N53K (antibody, name in Kabat numbering, V domains shown)
VH: QVQLVESGGGLVQPGRSLRLSCAASGFTFSNAWMHWVRQAPGKGLEWVAQIKDKGKAYAAYYAPSVKGRFTISRDDSKNSIYLQMNSLKTEDTAVYYCHYVHYASASTVLPAFGVDAWGQGTTVTVSS
VL: DIVMTQSPLSLPVTPGEPASISCQASQELVHMNRNTYLHWYQQKPGQAPRLLIYKVSNRFPGVPDRFSGSGSGTDFTLKISRVEAEDVGVYYCAQGTSVPFTFGQGTKLEIK
B8: H183/L072 VH F29R (antibody, name in Kabat numbering, V domains shown)
VH: QVQLVESGGGLVQPGRSLRLSCAASGFTRSNAWMHWVRQAPGKGLEWVAQIKDKGNAYAAYYAPSVKGRFTISRDDSKNSIYLQMNSLKTEDTAVYYCHYVHYASASTVLPAFGVDAWGQGTTVTVSS
VL: DIVMTQSPLSLPVTPGEPASISCQASQELVHMNRNTYLHWYQQKPGQAPRLLIYKVSNRFPGVPDRFSGSGSGTDFTLKISRVEAEDVGVYYCAQGTSVPFTFGQGTKLEIK
B9: H183/L072 VH Y55R (antibody, name in Kabat numbering, V domains shown)
VH: QVQLVESGGGLVQPGRSLRLSCAASGFTFSNAWMHWVRQAPGKGLEWVAQIKDKGNARAAYYAPSVKGRFTISRDDSKNSIYLQMNSLKTEDTAVYYCHYVHYASASTVLPAFGVDAWGQGTTVTVSS
VL: DIVMTQSPLSLPVTPGEPASISCQASQELVHMNRNTYLHWYQQKPGQAPRLLIYKVSNRFPGVPDRFSGSGSGTDFTLKISRVEAEDVGVYYCAQGTSVPFTFGQGTKLEIK
B10: H183/L072 VH H35R (antibody, name in Kabat numbering, V domains shown)
VH: QVQLVESGGGLVQPGRSLRLSCAASGFTFSNAWMRWVRQAPGKGLEWVAQIKDKGNAYAAYYAPSVKGRFTISRDDSKNSIYLQMNSLKTEDTAVYYCHYVHYASASTVLPAFGVDAWGQGTTVTVSS
VL: DIVMTQSPLSLPVTPGEPASISCQASQELVHMNRNTYLHWYQQKPGQAPRLLIYKVSNRFPGVPDRFSGSGSGTDFTLKISRVEAEDVGVYYCAQGTSVPFTFGQGTKLEIK
B11: H183/L072 VH K52F (antibody, name in Kabat numbering, V domains shown)
VH: QVQLVESGGGLVQPGRSLRLSCAASGFTFSNAWMHWVRQAPGKGLEWVAQIFDKGNAYAAYYAPSVKGRFTISRDDSKNSIYLQMNSLKTEDTAVYYCHYVHYASASTVLPAFGVDAWGQGTTVTVSS
VL: DIVMTQSPLSLPVTPGEPASISCQASQELVHMNRNTYLHWYQQKPGQAPRLLIYKVSNRFPGVPDRFSGSGSGTDFTLKISRVEAEDVGVYYCAQGTSVPFTFGQGTKLEIK
B12: H183/L072 VH D52aK (antibody, name in Kabat numbering, V domains shown)
VH: QVQLVESGGGLVQPGRSLRLSCAASGFTFSNAWMHWVRQAPGKGLEWVAQIKKKGNAYAAYYAPSVKGRFTISRDDSKNSIYLQMNSLKTEDTAVYYCHYVHYASASTVLPAFGVDAWGQGTTVTVSS
VL: DIVMTQSPLSLPVTPGEPASISCQASQELVHMNRNTYLHWYQQKPGQAPRLLIYKVSNRFPGVPDRFSGSGSGTDFTLKISRVEAEDVGVYYCAQGTSVPFTFGQGTKLEIK
B13: H183/L072 VH W33R (antibody, name in Kabat numbering, V domains shown)
VH: QVQLVESGGGLVQPGRSLRLSCAASGFTFSNARMHWVRQAPGKGLEWVAQIKDKGNAYAAYYAPSVKGRFTISRDDSKNSIYLQMNSLKTEDTAVYYCHYVHYASASTVLPAFGVDAWGQGTTVTVSS
VL: DIVMTQSPLSLPVTPGEPASISCQASQELVHMNRNTYLHWYQQKPGQAPRLLIYKVSNRFPGVPDRFSGSGSGTDFTLKISRVEAEDVGVYYCAQGTSVPFTFGQGTKLEIK
B14: H183/L072 VH D52aR (antibody, name in Kabat numbering, V domains shown)
VH: QVQLVESGGGLVQPGRSLRLSCAASGFTFSNAWMHWVRQAPGKGLEWVAQIKRKGNAYAAYYAPSVKGRFTISRDDSKNSIYLQMNSLKTEDTAVYYCHYVHYASASTVLPAFGVDAWGQGTTVTVSS
VL: DIVMTQSPLSLPVTPGEPASISCQASQELVHMNRNTYLHWYQQKPGQAPRLLIYKVSNRFPGVPDRFSGSGSGTDFTLKISRVEAEDVGVYYCAQGTSVPFTFGQGTKLEIK
B15: H183/L072 VH W33F (antibody, name in Kabat numbering, V domains shown)
VH: QVQLVESGGGLVQPGRSLRLSCAASGFTFSNAFMHWVRQAPGKGLEWVAQIKDKGNAYAAYYAPSVKGRFTISRDDSKNSIYLQMNSLKTEDTAVYYCHYVHYASASTVLPAFGVDAWGQGTTVTVSS
VL: DIVMTQSPLSLPVTPGEPASISCQASQELVHMNRNTYLHWYQQKPGQAPRLLIYKVSNRFPGVPDRFSGSGSGTDFTLKISRVEAEDVGVYYCAQGTSVPFTFGQGTKLEIK
B16: H183/L072 VH D52aF (antibody, name in Kabat numbering, V domains shown)
VH: QVQLVESGGGLVQPGRSLRLSCAASGFTFSNAWMHWVRQAPGKGLEWVAQIKFKGNAYAAYYAPSVKGRFTISRDDSKNSIYLQMNSLKTEDTAVYYCHYVHYASASTVLPAFGVDAWGQGTTVTVSS
VL: DIVMTQSPLSLPVTPGEPASISCQASQELVHMNRNTYLHWYQQKPGQAPRLLIYKVSNRFPGVPDRFSGSGSGTDFTLKISRVEAEDVGVYYCAQGTSVPFTFGQGTKLEIK
B17: H183/L072 VH N31R (antibody, name in Kabat numbering, V domains shown)
VH: QVQLVESGGGLVQPGRSLRLSCAASGFTFSRAWMHWVRQAPGKGLEWVAQIKDKGNAYAAYYAPSVKGRFTISRDDSKNSIYLQMNSLKTEDTAVYYCHYVHYASASTVLPAFGVDAWGQGTTVTVSS
VL: DIVMTQSPLSLPVTPGEPASISCQASQELVHMNRNTYLHWYQQKPGQAPRLLIYKVSNRFPGVPDRFSGSGSGTDFTLKISRVEAEDVGVYYCAQGTSVPFTFGQGTKLEIK
B18: H183/L072 VH I51R (antibody, name in Kabat numbering, V domains shown)
VH: QVQLVESGGGLVQPGRSLRLSCAASGFTFSNAWMHWVRQAPGKGLEWVAQRKDKGNAYAAYYAPSVKGRFTISRDDSKNSIYLQMNSLKTEDTAVYYCHYVHYASASTVLPAFGVDAWGQGTTVTVSS
VL: DIVMTQSPLSLPVTPGEPASISCQASQELVHMNRNTYLHWYQQKPGQAPRLLIYKVSNRFPGVPDRFSGSGSGTDFTLKISRVEAEDVGVYYCAQGTSVPFTFGQGTKLEIK
B19: H183/L072 VH N53R (antibody, name in Kabat numbering, V domains shown)
VH: QVQLVESGGGLVQPGRSLRLSCAASGFTFSNAWMHWVRQAPGKGLEWVAQIKDKGRAYAAYYAPSVKGRFTISRDDSKNSIYLQMNSLKTEDTAVYYCHYVHYASASTVLPAFGVDAWGQGTTVTVSS
VL: DIVMTQSPLSLPVTPGEPASISCQASQELVHMNRNTYLHWYQQKPGQAPRLLIYKVSNRFPGVPDRFSGSGSGTDFTLKISRVEAEDVGVYYCAQGTSVPFTFGQGTKLEIK
B20: H183/L072 VH M34R (antibody, name in Kabat numbering, V domains shown)
VH: QVQLVESGGGLVQPGRSLRLSCAASGFTFSNAWRHWVRQAPGKGLEWVAQIKDKGNAYAAYYAPSVKGRFTISRDDSKNSIYLQMNSLKTEDTAVYYCHYVHYASASTVLPAFGVDAWGQGTTVTVSS
VL: DIVMTQSPLSLPVTPGEPASISCQASQELVHMNRNTYLHWYQQKPGQAPRLLIYKVSNRFPGVPDRFSGSGSGTDFTLKISRVEAEDVGVYYCAQGTSVPFTFGQGTKLEIK

The target of the assay is Human CD137 ECD (human). The experiment in a line: single mutant vs template dBBDu183H.
Chain of Human CD137 ECD (human) (chain, as listed by the source limits assumed): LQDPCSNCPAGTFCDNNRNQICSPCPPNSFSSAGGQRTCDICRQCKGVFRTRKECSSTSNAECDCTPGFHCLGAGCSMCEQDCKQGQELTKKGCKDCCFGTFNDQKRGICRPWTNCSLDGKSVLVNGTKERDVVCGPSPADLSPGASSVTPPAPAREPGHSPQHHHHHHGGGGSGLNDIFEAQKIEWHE
Turning to B1, the fold change of affinity came out at 0 fold.
Next, B2: 0 fold; B3: 0 fold.
Next, B4: 0 fold; B5: 0 fold.
Next, B6: 0 fold; B7: 0 fold.
Consider B8, for which the fold change of affinity stood at 0 fold.
The value for B9 was 0 fold; that for B10 was 0 fold.
With B11, the fold change of affinity turned out to be 0 fold.
Next, B12: 0 fold; B13: 0 fold; B14: 0 fold.
On to B15, for which the fold change of affinity was determined as 0 fold.
The value for B16 was 0 fold; that for B17 was 0 fold.
B18: the fold change of affinity was found to be 0 fold.
On to B19, for which the fold change of affinity stood at 0 fold.
Consider B20, for which the fold change of affinity was 0 fold.
